B1: HDV Ribozyme (parent)
chain: GGCCGGCAUGGUCCCAGCCUCCUCGCUGGCGCCGGCUGGGCAACAUUCCGAGGGGACCGUCCCCUCGGUAAUGGCGAAUGGGACCCA

This note sets out measurements from the RNAGym collection of RNA variant scans (doi:10.7554/elife.80360).

This data set covers variants of B1. The data set is described as follows: self-cleavage, relative activity (ratio to wild type); higher = more cleavage; co-transcriptional.
For G28A C85U, the self-cleavage stood at 0.106. Then C61A U72G, with 0.554. Then C4A C61A, with 0.219; and G28U G59U, with 0.106. Then G2C G39C, with 0. Regarding G39A G40U, the self-cleavage is 0.57. On to C26G G52U, for which the self-cleavage was determined as 0.671.

On to C21A G52A, for which the self-cleavage amounted to 0.132. Then U23G C44U, with 0.325; and C26G C57A, with 0.812. Then G29A C58A, with 0.318; and G6C C85A, with 0.0791; and C30A G50C, with 0.577. Then A16G G31C, with 0.208. As for U23G C24G, the self-cleavage is 0.16. Consider C66U A70U, for which the self-cleavage was 0.919. Turning to G35U G53A, the self-cleavage was 0.42. To C48U C75A belongs 0.199; to C49G G76U, 1.17; to C30G A45U, 0.107. To G35A U69A belongs 0.571; to C18A G82A, 0.149. To U60A C66G belongs 0.878; to C36U U69G, 0.519; to C22U C86U, 0.674. For the variant C64G G73U, the self-cleavage turned out to be 0.172. Consider U27A A43U, for which the self-cleavage stood at 0.401. To G5U G28A belongs 0; to C41U U60A, 0.815; to G28A G40C, 0.0702. Then C22A A83C, with 0.147; and C24U C84U, with 0.53.

For the variant C4A A70U, the self-cleavage is 0.252. To A16G A42C belongs 0.0755. Then G73U G81U, with 0.208; and C61A U79C, with 0.506. To C62G C66A belongs 0.323. Consider C62U A87C, for which the self-cleavage was found to be 1.11.

Regarding C48G G59C, the self-cleavage came to 0.831.

As for C61A C85A, the self-cleavage is 1.09.

Take C24G C44A: the self-cleavage was determined as 0.0297. Then C7U C32G, with 0.0361. To G5C U79G belongs 0. Turning to C57U C66G, the self-cleavage amounted to 1.07. Then G5C C63G, with 0; and A8U A78C, with 0.128. To U27A G55C belongs 0.864; to G1A G11C, 0.172; to C44A U65C, 0.804. Turning to A16G U65A, the self-cleavage was determined as 0.974. As for U12G C85U, the self-cleavage is 0.787.

Turning to G1C G10C, the self-cleavage was 0.095.

For the variant C13U G76A, the self-cleavage was determined as 0.743. To C49U G53U belongs 1.02. Then G10C C18U, with 0.396. Then A42C G53U, with 0.231. With G17C U47C, the self-cleavage came to 0.519. To C7U C13G belongs 0; to G54A G67U, 0.657. To C14U G50C belongs 1.11. To G54C G73C belongs 0.502; to C18U C63G, 0.607; to C7A G28A, 0.123. Regarding G40U U72G, the self-cleavage was determined as 0.23. As to C48A A87C, the self-cleavage came to 1.16. Then G54U C61U, with 0.895. To A43C A56U belongs 0.584. To G38C A51U belongs 0.181; to U20G G81C, 0.095; to U12G G31A, 0.0504. Turning to G34A U65A, the self-cleavage amounted to 0.0692. Then G55U C75A, with 0.153; and C13U G74A, with 0.131; and A16G A87C, with 1.09. To C7A G25C belongs 0; to G39C A78G, 0.0573; to G28A G76C, 0.156. Then A8U G34A, with 0.242; and U46C C85G, with 0.675; and C4U A45G, with 0.862. With C3G G40U, the self-cleavage was determined as 0.442. To C19U A87U belongs 0.149; to G38A U72C, 0.108; to G10A C14A, 0.205. Consider C62A G82U, for which the self-cleavage was 0.295.

G34U C66G: the self-cleavage was determined as 0.164. C24G G25A: the self-cleavage was determined as 0.0959. Then C4G A8U, with 0.214.

On to C22U C49G, for which the self-cleavage was determined as 0.684.

C26U C85A: the self-cleavage amounted to 0.96.

On to G54C G82A, for which the self-cleavage was determined as 0.226. Then G6C C15G, with 0; and G59A U69A, with 1.08. On to C64G C66A, for which the self-cleavage stood at 0.888. Then U9C C61G, with 0.755; and C26A U79G, with 0.875; and C26A A70G, with 1.11. To C15A G34U belongs 0; to C13G G28A, 0; to G10C G73A, 0.396. To G10C G52A belongs 0.746; to G5C U69C, 0.396; to G50C A78C, 0.188. On to A45C G73A, for which the self-cleavage came out at 0.528. C49G C84A: the self-cleavage stood at 0.652. Then C19A C85G, with 0.149; and G40A C49U, with 0.95; and G10A U79G, with 0.232. To A45G G74A belongs 0.517; to G17U C21G, 0; to G10U C58A, 0.873. Then G6U G10C, with 0.364; and C48G C64U, with 0.85; and C44A G74C, with 0.237. In the case of C33A G67U, the self-cleavage turned out to be 0.253. On to C32U G73A, for which the self-cleavage came to 0.364.

Take A43C G50A: the self-cleavage stood at 0.469. To C4A C30U belongs 0.116.

With U9C G35C, the self-cleavage amounted to 0.519. Take U9A U27A: the self-cleavage came out at 0.9.

Take C21U U69G: the self-cleavage came to 0.19.

In the case of G50U U65A, the self-cleavage worked out at 0.981. To G2C C63U belongs 0; to A70G G80C, 0.104; to G29C C62A, 0.

For A16C U20G, the self-cleavage was found to be 0. To C75G A83G belongs 0.153; to G17U C41G, 0.0462. To C41U U65C belongs 0.954; to G50A G76U, 1.01; to C32A G38U, 0.181. Then C26G G74U, with 0.359; and C30G C61A, with 0.0252.

Consider C13U C57A, for which the self-cleavage amounted to 0.831. Then C22U C24A, with 0.302; and C26U A42U, with 0.682. Then A45G U65C, with 1.01. To U9C C62A belongs 1.14; to G52A C84G, 0.764. Regarding C66U U72A, the self-cleavage amounted to 0.525. To C66U U72C belongs 0.518. On to G2A C7G, for which the self-cleavage came out at 0.017. Regarding G34C A71C, the self-cleavage is 0.201. Then G28U C58A, with 0.208; and C48G C58G, with 1.11; and A51C G80C, with 0.0437. Then U9A C84U, with 0.749; and C36A G82A, with 0.071; and U47A G59C, with 1.11. Then A16U U20A, with 0.0875. With U47A C63A, the self-cleavage came out at 0.96. C24G C26A: the self-cleavage was 0.886. To G1U C58G belongs 0.318. To U12A G31C belongs 0; to U46A G82U, 0.119; to G67A A78U, 0.234. Then G17A C63U, with 0.88; and C18A C85A, with 0.224. For C3U C85A, the self-cleavage amounted to 0.646. To C22U U72C belongs 0.193; to A77G G82U, 0.277; to U69C A71U, 1.01. To A42U C64U belongs 0.594; to G35C G40U, 0.145.

As to G40A A42U, the self-cleavage is 0.802. To G6C G59U belongs 0.314; to G10C C49A, 0.443.
